Test results reported in US20230305005A1.
pKd: −log10 of the molar value.

Tests used:
[1] = biological target: RBD polypeptide (RBD portion of the SARS-CoV-2 S1 spike protein) (SARS-CoV-2) (UniProt P0DTC2); assay: BLI, biotinylated antibody on streptavidin tip, RBD polypeptide in PBS; row for 10 nM RBD
[2] = biological target: RBD polypeptide (RBD portion of the SARS-CoV-2 S1 spike protein) (SARS-CoV-2) (UniProt P0DTC2); assay: BLI, biotinylated antibody on streptavidin tip, RBD polypeptide in PBS; row for 100 nM RBD

pKd [1]: 8.00
koff [1]: 0.00101 s⁻¹
kon [1]: 102000 M⁻¹ s⁻¹
pKd [2]: 8.00
koff [2]: 0.00101 s⁻¹
kon [2]: 102000 M⁻¹ s⁻¹
Substance: Ty1-Biotin (VHH)
